Measured values published in US8420776 (US Dept. of Health and Human Services, dated 2013).
Substitutions are numbered along the chain they refer to.

B1: GST fusion of the gp78 cytoplasmic tail beginning after the RING finger (residues 429-643 of SEQ ID NO:2) (other)
chain: IASWLPSFSVEVMHTTNILGITQASNSQLNAMAHQIQEMFPQVPYHLVLQDLQLTRSVEITTDNILEGRIQVPFPTQRSDSIRPALNSPVERPSSDQEEGETSAQTERVPLDLSPRLEETLDFGEVEVEPSEVEDFEARGSRFSKSADERQRMLVQRKDELLQQARKRFLNKSSEDDAASESFLPLEGASSDPVTLRRRMLAAAAERRLQKQQTS
notes: also called gp78CΔR; gp78CAR; not shown: GST carrier and the pGEX4T-1 linker (N-terminal)
B2: GST fusion of the cytoplasmic domain of yeast Cue1p (Cue1p 24-203) (other, UniProt P38428 24-203, looked up)
chain: QSNQHPSAQRLSATGVNAHGRPQGSTQNALRRTGRVNGGHPVTTQMVETVQNLAPNLHPEQIRYSLENTGSVEETVERYLRGDEFSFPPGFEPSRAPMGANAAVDNNAAGGGEFNDPRKKNMICAENLLDKFHVDLNEDMSNLSFKDLDIEERKRLLVWQARKNLETKLQSDKDLQSLLT
notes: range 24-203; also called GST-Cue1p 24-203; not shown: glutathione S-transferase (GST) fusion partner, N-terminal (pGEX4T-1)
B3: Ube2G1, in vitro translated and labelled with 35S-methionine (enzyme, rat, UniProt P62255 1-170, looked up)
chain: MTELQSALLLRRQLAELNKNPVEGFSAGLIDDNDLYRWEVLIIGPPDTLYEGGVFKAHLTFPKDYPLRPPKMKFITEIWHPNVDKNGDVCISILHEPGEDKYGYEKPEERWLPIHTVETIMISVISMLADPNGDSPANVDAAKEWREDRNGEFKRKVARCVRKSQETAFE
modifications: 35S-methionine label
notes: also called rat Ubc7 (Ube2g1)
B4: GST fusion of the entire gp78 cytoplasmic tail (gp78C; residues 309-643 of SEQ ID NO:2) (other)
chain: IRRHKNYLRVVGNMEARFAVATPEELAVNNDDCAICWDSMQAARKLPCGHLFHNSCLRSWLEQDTSCPTCRMSLNIADNNRVREEHQGENLDENLVPVAAAEGRPRLNQHNHFFHFDGSRIASWLPSFSVEVMHTTNILGITQASNSQLNAMAHQIQEMFPQVPYHLVLQDLQLTRSVEITTDNILEGRIQVPFPTQRSDSIRPALNSPVERPSSDQEEGETSAQTERVPLDLSPRLEETLDFGEVEVEPSEVEDFEARGSRFSKSADERQRMLVQRKDELLQQARKRFLNKSSEDDAASESFLPLEGASSDPVTLRRRMLAAAAERRLQKQQTS
notes: also called gp78 cytoplasmic domain; not shown: glutathione S-transferase (GST) fusion partner, N-terminal (pGEX type vector)
B5: GST-gp78CCue-m1, 2: gp78 C-terminal region with both sets of Cue domain mutations (other)
chain: B4 chain with M159G, F160G, P161R, V168R, D171V, L172D
notes: not shown: glutathione S-transferase (GST) fusion partner, N-terminal (pGEX type vector)
B6: GST-gp78CCue-m1: complete C-terminal region of gp78 with MFP to GGR mutation of residues 467 to 469 (other)
chain: B4 chain with M159G, F160G, P161R
notes: as for B5
B7: Ube2G2/MmUbc7, in vitro translated and labelled with 35S-methionine (enzyme)
chain: MAGTALKRLMAEYKQLTLNPPEGIVAGPMNEENFFEWEALIMGPEDTCFEFGVFPAILSFPLDYPLSPPKMRFTCEMFHPNIYPDGRVCISILHAPGDDPMGYESSAERWSPVQSVEKILLSVVSMLAEPNDESGANVDASKMWRDDREQFYKIAKQIVQKSLGL
modifications: 35S-methionine label
notes: Translated in wheat germ or rabbit reticulocyte lysate; also called in vitro translated Ube2G2
B8: GST-gp78Cuem2: gp78 C-terminal region with VLQDL to RLQVD mutation of residues 476 to 480 (other)
chain: B4 chain with V168R, D171V, L172D
notes: as for B5
B9: Myc-Ube2G2, co-expressed in HEK 293T cells (enzyme, not shown: small tags and cut ends)
chain: B7 chain
notes: Plasmid described in Tiwari and Weissman, 2001; also called Myc-MmUbc7; myc-tagged MmUbc7/Ube2G2
B10: yeast Ubc7p, in vitro translated and labelled with 35S-methionine (enzyme, UniProt Q02159 1-165, looked up)
chain: MSKTAQKRLLKELQQLIKDSPPGIVAGPKSENNIFIWDCLIQGPPDTPYADGVFNAKLEFPKDYPLSPPKLTFTPSILHPNIYPNGEVCISILHSPGDDPNMYELAEERWSPVQSVEKILLSVMSMLSEPNIESGANIDACILWRDNRPEFERQVKLSILKSLGF
modifications: 35S-methionine label
B11: full length gp78 with both Cue domain mutations (gp78Cue-m1, 2) (enzyme)
chain: MPLLFLERFPWPSLRTYTGLSGLALLGTIISAYRALSQPEAGPGEPDQLTASLQPEPPAPARPSAGGPRARDVAQYLLSDSLFVWVLVNTACCVLMLVAKLIQCIVFGPLRVSERQHLKDKFWNFIFYKFIFIFGVLNVQTVEEVVMWCLWFAGLVFLHLMVQLCKDRFEYLSFSPTTPMSSHGRVLSLLVAMLLSCCGLAAVCSITGYTHGMHTLAFMAAESLLVTVRTAHVILRYVIHLWDLNHEGTWEGKGTYVYYTDFVMELTLLSLDLMHHIHMLLFGNIWLSMASLVIFMQLRYLFHEVQRRIRRHKNYLRVVGNMEARFAVATPEELAVNNDDCAICWDSMQAARKLPCGHLFHNSCLRSWLEQDTSCPTCRMSLNIADNNRVREEHQGENLDENLVPVAAAEGRPRLNQHNHFFHFDGSRIASWLPSFSVEVMHTTNILGITQASNSQLNAMAHQIQEGGRQVPYHLRLQVDQLTRSVEITTDNILEGRIQVPFPTQRSDSIRPALNSPVERPSSDQEEGETSAQTERVPLDLSPRLEETLDFGEVEVEPSEVEDFEARGSRFSKSADERQRMLVQRKDELLQQARKRFLNKSSEDDAASESFLPLEGASSDPVTLRRRMLAAAAERRLQKQQTS
notes: Full length, expressed in cells; also called Cue12M
B12: full length gp78 with the E2-m2 mutation (gp78E2-m2) (enzyme)
chain: MPLLFLERFPWPSLRTYTGLSGLALLGTIISAYRALSQPEAGPGEPDQLTASLQPEPPAPARPSAGGPRARDVAQYLLSDSLFVWVLVNTACCVLMLVAKLIQCIVFGPLRVSERQHLKDKFWNFIFYKFIFIFGVLNVQTVEEVVMWCLWFAGLVFLHLMVQLCKDRFEYLSFSPTTPMSSHGRVLSLLVAMLLSCCGLAAVCSITGYTHGMHTLAFMAAESLLVTVRTAHVILRYVIHLWDLNHEGTWEGKGTYVYYTDFVMELTLLSLDLMHHIHMLLFGNIWLSMASLVIFMQLRYLFHEVQRRIRRHKNYLRVVGNMEARFAVATPEELAVNNDDCAICWDSMQAARKLPCGHLFHNSCLRSWLEQDTSCPTCRMSLNIADNNRVREEHQGENLDENLVPVAAAEGRPRLNQHNHFFHFDGSRIASWLPSFSVEVMHTTNILGITQASNSQLNAMAHQIQEMFPQVPYHLVLQDLQLTRSVEITTDNILEGRIQVPFPTQRSDSIRPALNSPVERPSSDQEEGETSAQTERVPLDLSPRLEETLDFGEVEVEPSEVEDFEARGSRFSKSADERAAAGGGRKDELLQQARKRFLNKSSEDDAASESFLPLEGASSDPVTLRRRMLAAAAERRLQKQQTS
notes: Full length, expressed in cells; also called ΔB in the context of the full length gp78
B13: endogenous Ube2g1 of HEK 293T cells (enzyme, human, UniProt P62253 2-170, looked up)
chain: TELQSALLLRRQLAELNKNPVEGFSAGLIDDNDLYRWEVLIIGPPDTLYEGGVFKAHLTFPKDYPLRPPKMKFITEIWHPNVDKNGDVCISILHEPGEDKYGYEKPEERWLPIHTVETIMISVISMLADPNGDSPANVDAAKEWREDRNGEFKRKVARCVRKSQETAFE
B14: GST-AO7 (92 to 259), the RING finger and surrounding regions of the E3 AO7 (other)
chain: QIHKISQALGHVAKEGLGTAMLYELIEKGKEILTDNNIPHGQCVICLYGFQEKEAFTKTPCYHYFHCHCLARYIQHMEQELTTQEQEQERQHVVTKQKAVGVQCPVCREPLVYDLASLKAAPEPQQPMELYQPSAESLRQQEELKLLYQRQQEKGGIIDLEAERNRYF
notes: range 92-259; also called A07; not shown: glutathione S-transferase (GST) fusion partner

How the values were obtained:
[1] = biological target: B10; assay: GST pull-down, E2 in vitro translated in wheat germ
[2] = biological target: B7; assay: GST pull-down, E2 translated in wheat germ and labelled with 35S-Met, equal counts
[3] = biological target: T1, UbcH5B, in vitro translated and labelled with 35S-methionine (human, UniProt P62837 1-147); assay: GST pull-down, E2 in vitro translated in wheat germ
[4] = biological target: T2, lysine 48-linked (K48) tetra-ubiquitin (UniProt P0CG48 1-76, four ubiquitins joined by lysine 48 isopeptide links); assay: GST pull-down, anti-ubiquitin immunoblot
T2 construct: the monomer is its first 76 residues

[5] = biological target: B10; assay: GST pull-down, E2 translated in wheat germ and labelled with 35S-Met, equal counts
[6] = biological target: B2; assay: GST pull-down, E2 in vitro translated in wheat germ
[7] = biological target: B4; assay: as above
[8] = biological target: B4; assay: GST pull-down
[9] = biological target: N-terminal GFP fusion of gp78 amino acids 579-600 of SEQ ID NO:2 (human, UniProt P42212 1-238 = GFP); assay: anti-Myc immunoprecipitation from cells co-transfected with GFP fusion and Myc-Ube2G2, anti-GFP immunoblot
[10] = biological target: T3, gp78 truncated after amino acid 576 of SEQ ID NO:2 (gp78576) (human, UniProt Q9UKV5 1-576); assay: anti-Myc immunoprecipitation from co-transfected cells, anti-gp78 immunoblot
T3 construct: C-terminal truncation after the indicated amino acid

[11] = biological target: T4, gp78 truncated after amino acid 595 of SEQ ID NO:2 (gp78595) (human, UniProt Q9UKV5 1-595); assay: as above
T4 construct: C-terminal truncation after the indicated amino acid

[12] = biological target: T5, gp78 truncated after residue 611 of SEQ ID NO:2 (gp78611) (human, UniProt Q9UKV5 1-611); assay: as above
T5 construct: C-terminal truncation after the indicated amino acid

[13] = biological target: B9; assay: as above
[14] = biological target: T6, N-terminal GFP fusion of gp78 residues 574-611 (GFP-574-611) (human, UniProt P42212 1-238 = GFP); assay: co-immunoprecipitation with GFP fusion from HEK 293T cells
T6 construct: the vector encodes the enhanced variant; also called G2BD

[15] = biological target: T1, UbcH5B, in vitro translated and …; assay: GST pull-down, E2 translated in wheat germ and labelled with 35S-Met, equal counts

B1
binding result [1]: no binding | amount bound (% of input) [2]: ~10 % of input

B2
binding result [3]: no binding | binding result [4]: no binding (tested: 1 ug K48 tetra-ubiquitin) | amount bound (% of input) [5]: ~10 % of input | amount bound (% of input) [2]: ~10 % of input

B3
binding result [6]: no binding | binding result [7]: no binding

B4
amount bound (% of input) [2]: ~10 % of input

B5
binding result [4]: no binding (tested: 1 ug K48 tetra-ubiquitin)

B6
binding result [4]: no binding (tested: 1 ug K48 tetra-ubiquitin)

B7
binding result [8]: binds

B8
binding result [4]: no binding (tested: 1 ug K48 tetra-ubiquitin)

B9
binding result [9]: binds | binding result [10]: no binding | binding result [11]: no binding | binding result [12]: binds

B10
binding result [6]: binds | binding result [7]: no binding

B11
binding result [13]: binds

B12
binding result [13]: no binding

B13
binding result [14]: no binding

B14
amount bound (% of input) [15]: ~10 % of input
